Experimental data taken from patent US20090304718A1 (Boehringer Ingelheim, published 2009).

Legend:
[1] = target: human FAP (fibroblast activation protein alpha) expressed on HT1080 clone v1.33 cells (human) (UniProt Q12884); assay: cell ELISA on ethanol-fixed HT1080 v1.33 cells expressing human FAP; rabbit anti-human-IgG-peroxidase, TMB, OD 450 nm
[2] = target: T1, human FAP (fibroblast activation protein alpha) expressed on HT1080 clone v1.33 cells (human, UniProt Q12884 1-760); assay: cell-based or functional assay
T1 sequence (looked up): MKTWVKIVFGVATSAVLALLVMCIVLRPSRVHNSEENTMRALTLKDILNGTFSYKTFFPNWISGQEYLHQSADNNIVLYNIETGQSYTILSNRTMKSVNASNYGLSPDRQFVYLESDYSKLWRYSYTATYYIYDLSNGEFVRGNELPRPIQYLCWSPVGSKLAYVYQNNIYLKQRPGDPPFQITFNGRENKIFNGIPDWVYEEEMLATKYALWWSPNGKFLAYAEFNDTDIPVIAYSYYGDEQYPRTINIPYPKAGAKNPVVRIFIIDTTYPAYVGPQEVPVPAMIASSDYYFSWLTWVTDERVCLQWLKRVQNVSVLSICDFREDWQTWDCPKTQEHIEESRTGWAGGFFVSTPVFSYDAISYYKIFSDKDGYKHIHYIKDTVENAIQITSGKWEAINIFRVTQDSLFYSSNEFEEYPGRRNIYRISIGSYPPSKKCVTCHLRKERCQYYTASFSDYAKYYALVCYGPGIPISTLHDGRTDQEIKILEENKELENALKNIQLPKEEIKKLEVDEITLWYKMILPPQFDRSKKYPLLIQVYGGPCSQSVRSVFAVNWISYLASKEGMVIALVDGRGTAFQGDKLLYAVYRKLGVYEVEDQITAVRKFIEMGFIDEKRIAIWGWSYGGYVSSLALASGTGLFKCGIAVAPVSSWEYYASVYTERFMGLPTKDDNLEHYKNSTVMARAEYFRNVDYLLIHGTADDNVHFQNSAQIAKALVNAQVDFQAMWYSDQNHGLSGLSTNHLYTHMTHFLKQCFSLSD

[3] = target: T2, murine FAP expressed on HT1080 clone 13.6 cells (mouse, UniProt P97321 1-761); assay: cell ELISA on ethanol-fixed HT1080 13.6 cells expressing murine FAP; goat anti-mouse-Ig-peroxidase, TMB, OD 450 nm
T2 construct: whole, on cells; also called mouse FAP
T2 sequence (looked up): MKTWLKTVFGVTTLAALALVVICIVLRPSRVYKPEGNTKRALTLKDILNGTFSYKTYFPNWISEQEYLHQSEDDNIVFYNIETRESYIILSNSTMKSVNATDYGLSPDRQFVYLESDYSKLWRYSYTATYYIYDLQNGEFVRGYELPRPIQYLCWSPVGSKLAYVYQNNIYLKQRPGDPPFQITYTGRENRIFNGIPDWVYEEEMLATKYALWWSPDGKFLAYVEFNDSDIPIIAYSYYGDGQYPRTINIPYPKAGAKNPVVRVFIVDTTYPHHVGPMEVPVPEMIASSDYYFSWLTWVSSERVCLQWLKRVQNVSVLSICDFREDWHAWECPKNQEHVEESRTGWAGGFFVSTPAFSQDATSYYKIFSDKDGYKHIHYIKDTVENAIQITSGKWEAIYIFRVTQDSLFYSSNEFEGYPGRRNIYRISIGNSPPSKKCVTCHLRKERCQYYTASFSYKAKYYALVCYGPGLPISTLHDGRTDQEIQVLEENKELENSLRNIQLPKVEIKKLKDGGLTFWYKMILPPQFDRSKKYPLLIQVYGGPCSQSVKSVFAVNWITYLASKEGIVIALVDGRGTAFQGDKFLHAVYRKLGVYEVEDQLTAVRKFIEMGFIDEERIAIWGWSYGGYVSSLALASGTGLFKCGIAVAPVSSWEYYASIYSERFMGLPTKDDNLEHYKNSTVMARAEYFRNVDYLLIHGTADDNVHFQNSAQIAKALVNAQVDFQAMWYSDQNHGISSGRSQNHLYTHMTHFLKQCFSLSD
Protocol: The binding of BIBH1 and MFP5 antibodies and the respective antibody conjugates BIBH1-DM1 and MFP5-DM1 to antigen positive and negative HT1080 cells is determined in a cell-ELISA assay. […] Stable clones are generated as described for HT1080 v1.33 and clones positive for murine FAP are screened with the murine FAP specific monoclonal antibody 3D11 (Niedermeyer et al., 2000). For the cell ELISA 100 μl of cell suspensions at various cell densities are seeded per well of a 96-well microliter plate and the cells are incubated overnight in an incubator (37° C., 5% CO2). On the next day, cells are fixed with 100% ethanol. Dilutions of the antibodies BIBH1 and MFP5 and of the conjugates BIBH1-DM1 and MFP5-DM1 are added in duplicates and incubated for two hours. After washing three times with PBS/Tween, diluted rabbit anti-human-IgG-peroxidase conjugate is added for detection of the BIBH1 antibodies and for detection of the MFP5 antibodies a diluted goat anti-mouse-Ig-peroxidase conjugate is added. After incubation for two hours at RT plates are washed again three times with PBS/Tween and bound anti-FAP-antibodies detected by addition of TMB staining solution. […] A: Binding to HT1080 v1.33 expressing human FAP. The binding affinity of the antibodies is retained after conjugation to DM1. [0114] […] Only the murine specific antibody MFP5 binds. [0115] C: Negative control.

humanized anti-FAP antibody BIBH1 (sibrotuzumab)
EC50 (read off the curve) [1]: 8 ng Ab/ml

B1: BIBH1-DM1 (protein, INN chains, looked up)
VH: QVQLVQSGAEVKKPGASVKVSCKTSRYTFTEYTIHWVRQAPGQRLEWIGGINPNNGIPNYNQKFKGRVTITVDTSASTAYMELSSLRSEDTAVYYCARRRIAYGYDEGHAMDYWGQGTLVTVSS
VL: DIVMTQSPDSLAVSLGERATINCKSSQSLLYSRNQKNYLAWYQQKPGQPPKLLIFWASTRESGVPDRFSGSGFGTDFTLTISSLQAEDVAVYYCQQYFSYPLTFGQGTKVEIK
modifications: DM1 maytansinoid conjugate
EC50 (read off the curve) [1]: 10 ng Ab/ml

B2: MFP5-DM1 (MFP5-SPP-DM1, disulfide-linked immunoconjugate) (other)
VH: QVQLQQSGAELARPGASVNLSCKASGYTFTNNGINWLKQRTGQGLEWIGEIYPRSTNTLYNEKFKGKATLTADRSSNTAYMELRSLTSEDSAVYFCARTLTAPFAFWGQGTLVTVSA
VL: QIVLTQSPAIMSASPGEKVTMTCSASSGVNFMHWYQQKSGTSPKRWIFDTSKLASGVPARFSGSGSGTSYSLTISSMEAEDAATYYCQQWSFNPPTFGGGTKLEIKR
EC50 (concentration resulting in 50% cytotoxic effect), MTS cytotoxicity assay, 3 days [2]: ~0.04 nM

B3: MFP5-SPDB-DM4 (other)
VH: QVQLQQSGAELARPGASVNLSCKASGYTFTNNGINWLKQRTGQGLEWIGEIYPRSTNTLYNEKFKGKATLTADRSSNTAYMELRSLTSEDSAVYFCARTLTAPFAFWGQGTLVTVSA
VL: QIVLTQSPAIMSASPGEKVTMTCSASSGVNFMHWYQQKSGTSPKRWIFDTSKLASGVPARFSGSGSGTSYSLTISSMEAEDAATYYCQQWSFNPPTFGGGTKLEIKR
EC50, proliferation assay [2]: 0.029 nM

B4: MFP5-SMCC-DM1 (other)
VH: QVQLQQSGAELARPGASVNLSCKASGYTFTNNGINWLKQRTGQGLEWIGEIYPRSTNTLYNEKFKGKATLTADRSSNTAYMELRSLTSEDSAVYFCARTLTAPFAFWGQGTLVTVSA
VL: QIVLTQSPAIMSASPGEKVTMTCSASSGVNFMHWYQQKSGTSPKRWIFDTSKLASGVPARFSGSGSGTSYSLTISSMEAEDAATYYCQQWSFNPPTFGGGTKLEIKR
EC50, proliferation assay [2]: 0.022 nM

B5: murine monoclonal antibody MFP5 (antibody, mouse IgG2a, V domains shown)
VH: QVQLQQSGAELARPGASVNLSCKASGYTFTNNGINWLKQRTGQGLEWIGEIYPRSTNTLYNEKFKGKATLTADRSSNTAYMELRSLTSEDSAVYFCARTLTAPFAFWGQGTLVTVSA
VL: QIVLTQSPAIMSASPGEKVTMTCSASSGVNFMHWYQQKSGTSPKRWIFDTSKLASGVPARFSGSGSGTSYSLTISSMEAEDAATYYCQQWSFNPPTFGGGTKLEIKR
notes: also called BIA 13; mAbFAP5
EC50 (read off the curve) [3]: ~6 ng Ab/ml
